Experiment: label from the status in PepcDB records

Sequence	protein production
MSLSLPLFYAPDIEQSDRLPDDEAGHILRVLRMQAGDRLRLTDGRGSFFDAVIETADRKSCYVSVCGQESWQKPWRDRITIAIAPTKQSERMEWMLEKLVEIGVDEVVFIESEHSERRRIKAERLERIAISAMKQSLKASFPVIRVNIPIQTVIADTPKAAVRLIAYVDEAVRAEITQGRGYPSDFYHVGQDVLILIGPEGDFSPSEVESALLAGFAPVSLGESRLRTETAGLVACQWIHTLQACCRIGEGHHHHHH	not failed
MIYMDVYMNSYFPHNLDTENSIIDLSKWQELADLIVDIFGADCGAIIKFTGHSFTTMLSSRNEASFLHQGTEWSSDSKSFCRTIIKTGKPLYIANAVEDEYWFDAPPVVNGPVRSYCGVPIFSPDGSIYGTICAIDTKSTRYEDALTKLLLHLSKLITSDLKIAEKAEQHRLMALTDQTTGLLNRRGLNVLSEQKFKDAKRNQDHIGVLYLDIDNLKIINDNFGHLAGDKCIKLLATILKKMVRQSDLIARIGGDEFTVLALINSENTNELDHLSMRIREVYQNEIKDNAELNMSNISIGQHLVSYDSNASLKEMLAKADSLMYQEKIDKS	failed
SLKGKIEWVRVSAVVHSTEDREKVGEAISTLFPFEFEIAVSKAKGHYGNPMEYLEVELTKSSEIKKFWKNLLELLGEQAEEILSTLEDRIDEQNVLHIRIDKQKAYLGEVSLTSGGDPIAVKLRLVTYPSKREKVIEFARELCTIS	not failed
MSLTTVGIRGTFFDFVDDPWKHIGNEQAAARFHQDGLMVVTDGVIKAFGPYEKIAAAHPGVEITHIKDRIIVPGFIDGHIHLPQTRVLGAYGEQLLPWLQKSIYPEEIKYKDRNYAREGVKRFLDALLAAGTTTCQAFTSSSPVATEELFEEASRRNMRVIAGLTGIDRNAPAEFIDTPENFYRDSKRLIAQYHDKGRNLYAITPRFAFGASPELLKACQRLKHEHPDCWVNTHISENPAECSGVLVEHPDCQDYLGVYEKFDLVGPKFSGGHGVYLSNNEFRRMSKKGAAVVFCPCSNLFLGSGLFRLGRATDPEHRVKMSFGTDVGGGNRFSMISVLDDAYKVGMCNNTLLDGSIDPSRKDLAEAERNKLSPYRGFWSVTLGGAEGLYIDDKLGNFEPGKEADFVALDPNGGQLAQPWHQSLIADGAGPRTVDEAASMLFAVMMVGDDRCVDETWVMGKRLYKKSEGHHHHHH	not failed
MMTETVRTWRHIPQRYNLTGSKCLQCGNVFFPSRIICPECRRKGKLEELKFSGKGRIHSYSVINTPTDEFKDIAPYVVAIVELEEGARVTSQIVDCDPDSIEIGDEVEMVFRKVREEGEDGVISYGFKFKPKT	failed
MLKLFKGIYAIFLCVRECIINLFFILFLLTGFASIAFLVNGSDTNKSKEPNEKVALRLNLSGYLTDNHDDFAHRLIQSELTNDESLKASTFDVVRAIGKAAKDPNITGIVLDLSKFEGSDHSSLSFIGSELKAFKTSGKPVIAIGENYSQSQYYLASFADKIYLNKAGSINLQGLNFSSLYFKALLDKIDAVPHIFRVGTYKSAVEPFLRNDMSDEAKQNAQTLLNSIWHQFRTDIAENRMIAVDQVLPEPKSLIEKYKAVNANDAQYALNQKLVTDIGSKAEIEQALIEQFGKNEKGIYQHINYADYALNLTDRFAVNAEHKIAVINVEGEIISGKSKERSAGSETISELLRQAREDNNVDGVILRVNSPGGSVVASEIILQELQSIQQAGKPVVTSMGGLAASGGYWISATSDKIIASPNTITGSIGIFGLAMTFEKTAKHLGISEDGVATSPLAKTSSLQHLSNEHAELIQINIENGYDAFLDLVSRGRNMSKAEVDKVAQGQVWSGEDALKHGLVDQLGDFHTAYDVLTDLINQKRKAKGENEIKHFTAQWFIESDKGLFSSLLKNIGFKAKSTLAVWLGLPFVPQTQQAAELLQKFNDPQNTYLYCLTCGTIK	failed
MLQSINQLNPDIVVITGDLTENGFSAEYDGVKMFIDRIECKNRVLVPGNHDSKNAGYLHFEDLFENRFQTRNLGNMTIVGADSSQPDIDDGHLGRENYGWIKEAFSGENFKVFALHHHLVPIPLAGRENTVLVDAGDVLDLLNKCRVNLVLCGHCHIPHVWNLNNMLVVNAGTFCSSKTRGKTTQCFNLIQAENSEKNGNGESEKIEDGGWKVRVSRVFPQGNIEFITETVMLEHHHHHH	failed
MKQWADDENLPMERYKNYQMIVPAFIIKDILDGKIPETFEDSKNIKMIEASWGEESYTKGHIPTSVHVNTDIIEPPPTWMLDNDDNLTKFALDYGLTKDDTVIVSSSTPMASYRLAVILRYIGVKDVRVLNGGTNSWLSAGYELEFISNPKLEHHHHHH	failed
MRIFKLSPDEEERFFDNLPRFLFYYLFLFTIFWFGLTQKSAEEIRESILSGNVSPDFWRSTLVVLLLLAITDAYLMRKGDTNWNTPGAALFMLFGFFIMLLVVMYVGRASILFVVSLFLIYINTLIKTKEELRKKNH	failed
MRVLFIGDVFGQPGRRVLQNHLPTIRPQFDFVIVNMENSAGGFGMHRDAARGALEAGAGCLTLGNHAWHHKDIYPMLSEDTYPIVRPLNYADPGTPGVGWRTFDVNGEKLTVVNLLGRVFMEAVDNPFRTMDALLERDDLGTVFVDFHAEATSEKEAMGWHLAGRVAAVIGTHTHVPTADTRILKGGTAYQTDAGFTGPHDSIIGSAIEGPLQRFLTERPHRYGVAEGRAELNGVALHFEGGKATAAERYRFIED	not failed
MISVTAYEWIGLFIGMIIGGLAEAWGISNPEVLIRLGKWEDRLFIGCIAIAIGAGAIVLYGLSALGVSFHWGIKPDYVIGVALGGIIFGTGIAISGYVPGTVWMALGEGRRDAIYAVLGGLLGAASWTLIYQTSFGHWLTTYLNFGQIYFGGKVGTDLKLGFIIAIVWAIIMFVIAYTLPRYRKGKSCAYLSTHKNYKLDAEEEKEYIETANFLMEGTSMPIGKNNLPEKVNYHWTVSSKLFGVTMLSVGIIIGLTVVLEMFLHQIFGESTTYSWIVAQIWLPAGYWQYSTIVVHTIGWEPFSDIGTLFGAFLASIFFTRRFQAFSNVIPPSWKERFGNSQIKRAAGAFSGAYLMLLGARMADGCASGHILSGDLQMAVSSLEFFIFVVIFLLLVAHIIYRR	failed
MKSAPDWIAHPDTPYLLIDEAKLKSNINYLKQRVESLGSHLRPHLKTLRTLEAAGYLLDSKSAPATVSTLAEAEAYAKAGYTDLLYAVGIAPAKLKRVAALRQQGINLHILLDNITQAQAVVDYAAEFGQDFSVFIEIDSDDHRGGIKPSDSKLLTIAKTLGEHFTGLMTHAGGSYACNTEQGLKNFAKQECDAVRIARNNLETAGIHCAITSVGSTPTAHFGEDFSDISEVRAGVYTTFDLVMKNIGVCDFSHIAMSVVTTVIGHNKEKNWLLTDSGWMALSRDSGTAGQNRDFGYGQVCKIDGSVLDGLCVNSTSQEHGVIELSDAYQLEDFPVGHQLRIMPNHACATAAMHPVYHVLMSDGSHNTWQRITGW	not failed
MGSIDRYIFRTTLVSFAVVMGSLTGVIWITQALRGIDLMTSQGQTIITFLGLTGLAVPVLVLVIAPIALMIAVAHTLNRLATDSEIIVMNAAGLSPIRLFRPFFYATMVVAALVIIIGAYIAPDGLRRIARWDSEITADVLANVLQPGRFAQLEQGLTIRVRERQPGGLLVGVFIDDARAPNERVSIIADHGTVVKNDKGSFLVLEDGHLERFQTGKQEPALVAFSRYAFDMSKFSRARDVAYGIRERYLWELLWPAENDPLLARLPTEFRSEMHDRLLAPIYPFFFAAVAFAFLGLARTTRQSRNFSMAGAVLVAFVVRLAGFALSVIANKTPYVAGLQYLLLFVATGTCLWLINRNVVIEPPARVTEALNAFNASIARLIRRPVPA	failed
MTLPAPWRVRHLPLLLLLLAAPLLALANSDPLPSWKDGPSKQGILAFVQAVTTQGSPDYVKAAERIAVFDNDGTLWSEQPAYFEVLFAFDEIKRLAPQHPEWKTRQPFQAVLEGDHQALAASGMHGLLQIIGATHTGISSEAFIDNARRWLAEARHPKTGRPFNQMIYQPMLEMLDYLRSQDFKTYIVSGGDTAFMRAFAESAYGIPPEQVIGSNFVTQWQFQDGQPSILRTAKLAHNDDGPGKPESIDGIIGRRPLLAFGNSDGDLQMLQWTAAGSGKRFMALVHHTDAAREWAYDRKSQVGRLDQALDQAQQHGWTLVDMAAEWRRIYPFEPLAPEQAQ	failed
MWPNGSSLGPCFRPTNITLEERRLIASPWFAASFCVVGLASNLLALSVLAGARQGGSHTRSSFLTFLCGLVLTDFLGLLVTGTIVVSQHAALFEWHAVDPGCRLCRFMGVVMIFFGLSPLLLGAAMASERYLGITRPFSRPAVASQRRAWATVGLVWAAALALGLLPLLGVGRYTVQYPGSWCFLTLGAESGDVAFGLLFSMLGGLSVGLSFLLNTVSVATLCHVYHGQEAAQQRPRDSEVEMMAQLLGIMVVASVCWLPLLVFIAQTVLRNPPAMSPAGQLSRTTEKELLIYLRVATWNQILDPWVYILFRRAVLRRLQPRLSTRPRRVSLCGPAWSTVARSRLTATSASRVQAILVPQPPEQLGLQA	failed
RDSLFICAVATTETSRIPGITGAGASPELTEYTPAADVELIVHDAPRCLPEIPQTIVEGEAAPTPAVITKAALELAEVPFMVADAGASVKPDVPYININSEPGGDIRTGRAVTEPQRIYERGLMVGRTLSSLTEHLVVGESTPAGTTTALGVLTALGYDADFRVSASMPHNPHDLKREVVMAGLSNAGIEKGDCSREPFRAVEAVGDPMIPAVAGICMGSTVPVTLAGGTQMTAVCALMRAIDPDFDFSDTAIATTIFVAEDSTSDINRIAEQIGDIDIYVVDPDFGSASHRGLHEYLNGSVKEGVGAGGAMLLALLH	failed
MLAVKIFDRLPLALVITNASHSVLYANDAFKLMVCLQPDDILAFNPEQFFSPSEPHEIASLFNHLSEGKMWQGELVGLRNNGETFYLDLTVTVFRESHSADLGFAWLFSDVSERKKAAQLEHHHHHH	not failed
MLITVYCVRRDLTEVTFSLQVNPDFELSNFRVLCELESGVPAEEAQIVYMEQLLTDDHCSLGSYGLKDGDMVVLLQKDNVGLRTPGRTP	not failed
MGHIKKGELTQEEKELLEVIGKGTVQEAGRLLSSKNVHVNCLDENGMTPLMHAAYKGKLEMCKLLLRHGADASCHQHEHGYTALMFAALSGNKDITWVMLEAGAETDVVNSVGRTAAQMAAFVGQHDCVAIINNFFPRERLDYYTKPQGLDKEPKQPPKLAGPLHKIITTTNLHPVKIVMLVSENPLLADAAALGKCYRVMDLICEKCMKQRDMNEVLAMKMHYISCIFQKCITFLKEGENKLDTLIRSLLKGRASDGFPVYQEKIIRESIRKFPYCEATLLQQLVRSIAPVEIGSDPTAFSVLTQAITGQVGFVDVEFCTTCGEKGASKRCSVCKMVIYCDQTCQKTHWFAHKKMCKSLKDVYEKQQIEAAKHKRQEEKNGNPNVSSNHVNEDQPEAEEGITQENSIPSDSVEGEKEAANDTGLASAQDAPTGPQLSEE	failed
MNLAKGLDVLKISSNVLGEDKVMYIPAIYTEDDATLIDTGLPGQGDLIIDALNKSNTSFDRLKNIIITHHDIDHIGNINYLREKSKNNIKVYAYKSEVSYITGEETPFKLYMLEQMVDKIDDKMLSMLNVMGLGFKSSYTKVDVSLDNHEKLNLGEEIEVIHTGGHTRGHICLYLKESKVLIAGDLLQVENGELKPVDVMHSNKQELKDAIKNISNYDIETIVFSHGGLYQRNIIETLKNLIIE	failed
MNEEKQQELLISVIITNYNYDQFIDQAIESVLSQTYYNFELIIVDDGSTDNSRDVISSYTDSRIKALVKNNGGQASAFNAGFEQANGEIICFLDSDDWWKPEKLETIIRWHYFINKDYAIFQHVLDVWYEGKTRPYKHILPSGDCFAEMKKVKKLDFFVPTSGLSFPKKILDRIFPIPIKFIIAADSYIMRTACVFNMVYSIPKSLGFYRQHDNTVFLNPDFDLQPFLKEILIPELNQFYQKYRINYQIEISDYNFNERKKNKKQKIFEYLKKVFFLEHHHHHH	failed

From a protein production outcome set (Wang et al. 2014)
